Measurements from patent US20230340137A1, “METHODS, THERAPIES AND USES FOR TREATING CANCER” (PFIZER INC., priority 2020, published 2023).

How the values were obtained:
[1] = system: MM.1S-PD-L1 multiple myeloma cells; test: Subcutaneous MM.1S-PD-L1 multiple myeloma mouse model, tumor volume; format: in vivo
Description: MM.1S multiple myeloma cells were engineered to express PD-L1 and are referred to as MM.1S-PD-L1. Pre-activated and expanded T cells (20×10^6) were administered on Day 19 after MM.1S-PDL1 tumor cell inoculation subcutaneously (SC). BCMAxCD3 bispecific (0.3 or 1 mg/kg) or negative bispecific (1 mg/kg) was administered IV on Day 21 and dosed Q7Dx3. Anti-PD-1 mAb was administered at 5 mg/kg intraperitoneally (IP) twice a week starting on Day 21. Tumor measurements were recorded 2 to 3 times a week using digital calipers. N (at study start) is 5-12 animals per group.

[2] = system: adult patients with advanced multiple myeloma; test: Phase 1 clinical study NCT03269136, safety (DLT, CRS); format: in vivo
Source text: This Example illustrates an ongoing Phase 1 open-label, multicenter clinical study of PF-06863135 (BCMA×CD3 bispecific) as monotherapy and in combination with sasanlimab, lenalidomide or pomalidomide, in adult patients with advanced multiple myeloma who have relapsed from or are refractory to standard therapy. The study has been registered on ClinicalTrials.gov with identifier NCT03269136 and was first posted August 2017. Study results for Part 1 of the trial and additional arms for the study are described in this Example.
Part 1 of the Study is the […] single agent dose escalation arm at the dose levels of 0.1, 0.3, 1, 3, 10, 30, and 50 μg/kg Q1W by intravenous (IV) administration, and at the dose levels of 80, 130, 215, 360, 600 and 1000 μg/kg Q1W by subcutaneous (SC) administration. Upon reaching maximum tolerated dose (MTD)/maximum administered dose (MAD), patients can be treated at a dose level selected from the foregoing dose levels described in this paragraph, and below the MTD/MAD fora Q2W administration, both IV and SC, to further support the recommended phase 2 dose (RP2D) decision. For the study, dose limiting toxicity observation period is set at 21 days for Q1W dosing and 28 days for Q2W dosing. The treatment cycle, aka cycle, for Q1W dosing would be 3 weeks, and for Q2W dosing would be four weeks.
Clinical Outcome of Part 1 of the Study. As of 15 Apr. 2020, a total of 23 patients were enrolled in Part 1 of the study and had been treated with PF-06863135 administered intravenously (IV) at 0.1 (N=2), 0.3 (N=3), 1 (N=2), 3 (N=3), 10 (N=2), 30 (N=5), and 50 (N=6) μg/kg. As of Aug. 21, 2020, a total of 30 patients were enrolled in Part 1 of the study and had been treated with PF-06863135 administered subcutaneously (SC) at 80 (N=6), 130 (N=4), 215 (N=4), 360 (N=4), 600 (N=6) and 1000 (N=6) μg/kg. Safety and efficacy data were available for in 23 IV and 30 SC treated patients per IMWG (International Myeloma Working Group) criteria.
Part 1.1 of the Study is an alternative maintenance dose escalation arm for single agent PF-06863135. If excessive toxicity occurs or the maximum tolerated dose (MTD)/maximum administered dose (MAD) is reached at a dose level that is earlier than desired in Part 1 of the study described above, a priming dose will be administered one week prior to the day 1 cycle 1 administration of the dose (maintenance dose) at this dose level and for all subsequent dose levels in the dose escalation that may be initiated for Part 1.1. The priming dosing will be at a lower dose level than the maintenance dose.
Clinical outcome of Part 1.1 of the Study. As of Feb. 4, 2021, a total of 20 patients were enrolled and treatment in Part 1.1 of the Study, with cohort of 7 patients at a 600 μg/kg priming dose followed by 1000 μg/kg Q1W dosing, and a cohort of 13 patients at a 600 μg/kg priming dose followed by 1000 μg/kg Q2W dosing. The CRS in these two cohorts is described in Table 13. Introducing of priming dose decreased medium duration of CRS by 50%, from 4 days to 2 days. The dose frequency in part 1.1 of the study (Q1W v. Q2W) had no impact on the CRS. Patient response of Part 1.1 of the Study is described in Table 14.

[3] = 600 μg/kg priming, 1000 μg/kg Q1W or Q2W SC, N = 20
[4] = all SC treated patients (Part 1)

## PF-06863135: heterodimeric humanized full-length bispecific antibody, one BCMA binding arm and one CD3 binding arm, modified human IgG2Δa Fc
[1]; day 14 post inoculation (before dosing), bispecific 0.3 mg/kg IV Q7Dx3 from Day 21, anti-PD-1 5 mg/kg IP twice a week
  Tumor Volume ± SEM: 34.4 ± 9.5 mm^3
[1]; day 14 post inoculation (before dosing), bispecific 1 mg/kg IV Q7Dx3 from Day 21, anti-PD-1 5 mg/kg IP twice a week
  Tumor Volume ± SEM: 26.4 ± 7.5 mm^3
[1]; day 18 post inoculation (before dosing), bispecific 0.3 mg/kg IV Q7Dx3 from Day 21, anti-PD-1 5 mg/kg IP twice a week
  Tumor Volume ± SEM: 91.6 ± 18 mm^3
[1]; day 18 post inoculation (before dosing), bispecific 1 mg/kg IV Q7Dx3 from Day 21, anti-PD-1 5 mg/kg IP twice a week
  Tumor Volume ± SEM: 92 ± 17.1 mm^3
[1]; day 20 post inoculation (before dosing), bispecific 0.3 mg/kg IV Q7Dx3 from Day 21, anti-PD-1 5 mg/kg IP twice a week
  Tumor Volume ± SEM: 122.5 ± 20.7 mm^3
[1]; day 20 post inoculation (before dosing), bispecific 1 mg/kg IV Q7Dx3 from Day 21, anti-PD-1 5 mg/kg IP twice a week
  Tumor Volume ± SEM: 130.7 ± 24.6 mm^3
[1]; day 25 post inoculation, bispecific 0.3 mg/kg IV Q7Dx3 from Day 21, anti-PD-1 5 mg/kg IP twice a week
  Tumor Volume ± SEM: 403 ± 59 mm^3
[1]; day 25 post inoculation, bispecific 1 mg/kg IV Q7Dx3 from Day 21, anti-PD-1 5 mg/kg IP twice a week
  Tumor Volume ± SEM: 601.1 ± 70 mm^3
[1]; day 28 post inoculation, bispecific 0.3 mg/kg IV Q7Dx3 from Day 21, anti-PD-1 5 mg/kg IP twice a week
  Tumor Volume ± SEM: 403.3 ± 67.6 mm^3
[1]; day 28 post inoculation, bispecific 1 mg/kg IV Q7Dx3 from Day 21, anti-PD-1 5 mg/kg IP twice a week
  Tumor Volume ± SEM: 482.9 ± 32.6 mm^3
[1]; day 32 post inoculation, bispecific 0.3 mg/kg IV Q7Dx3 from Day 21, anti-PD-1 5 mg/kg IP twice a week
  Tumor Volume ± SEM: 603.6 ± 151.6 mm^3
[1]; day 32 post inoculation, bispecific 1 mg/kg IV Q7Dx3 from Day 21, anti-PD-1 5 mg/kg IP twice a week
  Tumor Volume ± SEM: 410.5 ± 82.7 mm^3
[1]; day 35 post inoculation, bispecific 0.3 mg/kg IV Q7Dx3 from Day 21, anti-PD-1 5 mg/kg IP twice a week
  Tumor Volume ± SEM: 835.1 ± 77.2 mm^3
[1]; day 35 post inoculation, bispecific 1 mg/kg IV Q7Dx3 from Day 21, anti-PD-1 5 mg/kg IP twice a week
  Tumor Volume ± SEM: 627.9 ± 111.8 mm^3
[1]; day 39 post inoculation, bispecific 0.3 mg/kg IV Q7Dx3 from Day 21, anti-PD-1 5 mg/kg IP twice a week
  Tumor Volume ± SEM: 1569.3 ± 151.8 mm^3
[1]; day 39 post inoculation, bispecific 1 mg/kg IV Q7Dx3 from Day 21, anti-PD-1 5 mg/kg IP twice a week
  Tumor Volume ± SEM: 1436.8 ± 276.4 mm^3
[2]; 10 μg/kg IV cohort
  Patients with CRS (number): 1
  patients with CRS (percent): 50.0%
[2]; 30 μg/kg IV cohort
  Patients with CRS (number): 4
  patients with CRS (percent): 80.0%
  patients with dose limiting toxicities (DLTs): 1 patient
[2]; 50 μg/kg IV
  patients in whom CRS also occurred after second, third or fourth dose: 3 patients
[2]; 50 μg/kg IV cohort
  Patients with CRS (number): 6
  patients with CRS (percent): 100.0%
  patients with dose limiting toxicities (DLTs): 1 patient
[2]; 80 μg/kg Q1W SC, N = 6
  CRS Grade 1 (number of patients): 2
  CRS Grade 2 (number of patients): 1
  CRS Mean duration: 1 days
  Patients with CRS (number): 3
[2]; 130 μg/kg Q1W SC, N = 4
  CRS Grade 1 (number of patients): 2
  CRS Grade 2 (number of patients): 0
  CRS Mean duration: 3 days
  Patients with CRS (number): 2
[2]; 215 μg/kg Q1W SC, N = 4
  CRS Grade 1 (number of patients): 3
  CRS Grade 2 (number of patients): 0
  CRS Mean duration: 3 days
  Patients with CRS (number): 3
[2]; 360 μg/kg Q1W SC, N = 4
  CRS Grade 1 (number of patients): 2
  CRS Grade 2 (number of patients): 1
  CRS Mean duration: 1.7 days
  Patients with CRS (number): 3
[2]; 600 μg/kg Q1W SC, N = 6
  CRS Grade 1 (number of patients): 4
  CRS Grade 2 (number of patients): 2
  CRS Mean duration: 1.7 days
  Patients with CRS (number): 6
[2]; 600 μg/kg priming then 1000 μg/kg vs 1000 μg/kg without priming, SC
  decrease of duration of CRS by introducing priming dose: 50%
[2]; [3]
  CRS Grade 1 (number of patients): 11
  CRS Grade 2 (number of patients): 9
  CRS Mean duration: 2 days
  Patients with CRS (number): 20
  patients with CRS (percent): (100%)
[2]; 1000 μg/kg Q1W SC, N = 6
  CRS Grade 1 (number of patients): 5
  CRS Grade 2 (number of patients): 1
  CRS Mean duration: 4 days
  Patients with CRS (number): 6
[2]; 600 and 1000 μg/kg SC
  toxicities: tolerable and manageable
[2]; IV cohorts, 23 patients, febrile neutropenia Grade 3 and electrocardiogram QT prolongation Grade 1
  patients with dose limiting toxicities (DLTs): 2 patients
[2]; IV cohorts, each patient with CRS
  CRS onset after dosing: ≤ 2 days
[2]; Part 1 of the study
  Cytokine release syndrome (CRS), rank among adverse events: most common adverse event reported
[2]; Part 1.1, 600 μg/kg priming, 1000 μg/kg SC
  impact of dose frequency (Q1W v. Q2W) on the CRS: no impact
[2]; SC cohorts, 30 patients
  patients with dose limiting toxicities (DLTs): No patients
[2]; SC cohorts, primarily
  CRS onset after dosing: ≤ 2 days
[2]; all IV cohorts
  Patients with CRS (number): 11 patients
[2]; all IV treated patients
  patients with maximum Grade 1 CRS (number): 6
  patients with maximum Grade 1 CRS (percent): 26.1%
  patients with maximum Grade 2 CRS (number): 5
  patients with maximum Grade 2 CRS (percent): 21.7%
[2]; [4]
  patients with maximum Grade 1 CRS (number): 18
  patients with maximum Grade 1 CRS (percent): 60.0%
  patients with maximum Grade 2 CRS (number): 5
  patients with maximum Grade 2 CRS (percent): 16.7%
[2]; despite higher overall dose exposure in SC-treated patients
  CRS severity in SC-treated vs IV-treated patients: less severe
[2]; results of Part 1 of the Study
  timing of CRS relative to doses: primarily occurs after the initial dose
